Laboratory results taken from paper doi:10.1101/2021.04.08.21254942.

Target: TAMRA-labeled M9-NLS of hnRNPA2 WT peptide (human)
Assay: fluorescence polarisation

“Karyopherin-β2 WT (from UniProt Q92973 1-898) (receptor)” was tested, and the Kd was 95 nM.
